Article PMC10074443

How the values were obtained:
[1] = system: C[C@@H](N)[C@H](N)C(=O)O; assay: continuous MesG/hydroxylamine coupled adenylation assay; type: biochemical, Paraburkholderia acidicola; settings: co-substrate ATP; hydroxylamine as acceptor
[2] = system: N[C@H](CF)[C@H](N)C(=O)O; assay: as above; type: biochemical, Paraburkholderia acidicola; settings: co-substrate ATP; hydroxylamine as acceptor

Substance “A3 (adenylation domain of SulM) (Paraburkholderia acidicola)” has a Km [1] of 1.08 mM and a Km [2] of 20.7 mM.
